The text below walks through data of US20150175708A1 (Eli Lilly, published 2015).

The target in experiment [1] is T1, MET on the cell surface of human tumor cell lines (human, UniProt P08581 25-1390). Put plainly: cell-based or functional assay.
In experiment [2] the target is T1, MET on the cell surface of human tumor …. The experiment in a line: cell-based or functional assay. This is another data set of the same source.
Experiment [3] has as its target EGFR on the cell surface of human tumor cell lines (human, UniProt P00533 25-1210). Put plainly: cell-based or functional assay.
Experiment [4] addresses extracellular domain of human MET (MET-ECD) (human, UniProt P08581 25-932). Put plainly: SPR (Biacore), antibody captured on protein A chip, MET-ECD in solution, 25 C, 1:1 model.
For experiment [5], the target named is T2, human EGFR extracellular domain (EGFR-ECD) (human, UniProt P00533 25-645).
T2 construct: extracellular domain; also called human EGFR-ECD
Put plainly: SPR (Biacore), antibody captured on protein A chip, EGFR-ECD in solution, 25 C, 1:1 model.

T1 sequence (P08581 25-1390): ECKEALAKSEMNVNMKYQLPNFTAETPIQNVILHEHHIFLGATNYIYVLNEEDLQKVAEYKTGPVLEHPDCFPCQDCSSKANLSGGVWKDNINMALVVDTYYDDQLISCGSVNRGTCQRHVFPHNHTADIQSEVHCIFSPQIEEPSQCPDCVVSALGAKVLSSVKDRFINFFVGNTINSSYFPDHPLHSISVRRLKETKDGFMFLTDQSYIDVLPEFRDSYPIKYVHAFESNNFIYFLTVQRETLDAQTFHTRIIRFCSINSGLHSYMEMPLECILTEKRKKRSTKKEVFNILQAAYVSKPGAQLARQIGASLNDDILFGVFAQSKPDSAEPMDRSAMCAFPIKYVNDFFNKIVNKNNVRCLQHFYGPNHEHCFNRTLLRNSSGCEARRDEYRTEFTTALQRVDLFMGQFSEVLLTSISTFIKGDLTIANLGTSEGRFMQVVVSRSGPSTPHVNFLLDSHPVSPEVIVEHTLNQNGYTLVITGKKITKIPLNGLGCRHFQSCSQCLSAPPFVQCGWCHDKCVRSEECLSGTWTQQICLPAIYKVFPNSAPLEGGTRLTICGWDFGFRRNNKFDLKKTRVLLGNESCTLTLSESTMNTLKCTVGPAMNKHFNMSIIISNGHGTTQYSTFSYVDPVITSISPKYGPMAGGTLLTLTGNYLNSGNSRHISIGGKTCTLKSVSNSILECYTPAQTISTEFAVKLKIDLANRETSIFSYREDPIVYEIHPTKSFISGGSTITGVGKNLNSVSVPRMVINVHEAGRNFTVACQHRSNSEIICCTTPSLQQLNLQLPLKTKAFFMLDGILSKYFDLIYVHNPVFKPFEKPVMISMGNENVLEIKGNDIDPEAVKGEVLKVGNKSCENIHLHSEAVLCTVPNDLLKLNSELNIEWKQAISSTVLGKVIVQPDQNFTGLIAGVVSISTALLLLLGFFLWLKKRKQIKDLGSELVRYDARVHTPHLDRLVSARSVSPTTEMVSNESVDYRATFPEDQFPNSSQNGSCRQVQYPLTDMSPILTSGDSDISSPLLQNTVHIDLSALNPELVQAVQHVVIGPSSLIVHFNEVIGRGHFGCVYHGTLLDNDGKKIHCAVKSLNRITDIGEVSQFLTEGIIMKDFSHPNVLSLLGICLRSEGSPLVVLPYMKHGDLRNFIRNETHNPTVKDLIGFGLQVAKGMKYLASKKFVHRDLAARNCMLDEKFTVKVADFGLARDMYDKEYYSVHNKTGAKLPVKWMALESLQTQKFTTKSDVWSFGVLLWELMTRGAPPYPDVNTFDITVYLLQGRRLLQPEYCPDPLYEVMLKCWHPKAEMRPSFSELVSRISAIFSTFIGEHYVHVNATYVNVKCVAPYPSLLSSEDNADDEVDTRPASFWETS
extracellular domain of human MET (MET-ECD), sequence (P08581 25-932): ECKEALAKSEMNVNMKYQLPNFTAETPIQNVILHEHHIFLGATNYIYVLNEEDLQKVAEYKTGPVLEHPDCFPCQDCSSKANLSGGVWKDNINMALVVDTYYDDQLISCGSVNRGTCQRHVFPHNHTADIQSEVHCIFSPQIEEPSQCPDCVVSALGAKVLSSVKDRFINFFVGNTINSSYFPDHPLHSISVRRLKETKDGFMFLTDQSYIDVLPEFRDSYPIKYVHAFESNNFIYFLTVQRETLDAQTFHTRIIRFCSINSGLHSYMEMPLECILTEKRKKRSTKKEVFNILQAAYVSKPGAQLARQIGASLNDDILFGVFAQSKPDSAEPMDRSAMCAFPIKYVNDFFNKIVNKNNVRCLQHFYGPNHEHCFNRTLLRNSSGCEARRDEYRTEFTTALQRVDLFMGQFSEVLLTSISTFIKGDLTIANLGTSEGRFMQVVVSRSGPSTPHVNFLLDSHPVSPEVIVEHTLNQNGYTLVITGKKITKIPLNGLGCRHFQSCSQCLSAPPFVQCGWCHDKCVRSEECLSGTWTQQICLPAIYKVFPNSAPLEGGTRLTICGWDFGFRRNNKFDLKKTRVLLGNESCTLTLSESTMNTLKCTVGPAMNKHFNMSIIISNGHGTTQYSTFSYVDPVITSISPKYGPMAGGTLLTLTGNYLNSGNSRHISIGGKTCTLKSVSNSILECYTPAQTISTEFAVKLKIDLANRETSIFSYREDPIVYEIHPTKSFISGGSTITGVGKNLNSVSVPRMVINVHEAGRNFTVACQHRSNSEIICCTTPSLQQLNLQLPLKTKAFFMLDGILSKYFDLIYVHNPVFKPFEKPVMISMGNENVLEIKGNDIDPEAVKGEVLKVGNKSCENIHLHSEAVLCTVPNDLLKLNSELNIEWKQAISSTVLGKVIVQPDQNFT

B1: anti-MET/EGFR multifunctional antibody NH-YK (bispecific antibody, human IgG4 S228P, kappa, F234A L235A)
heavy: not shown
light: DIQMTQSPSSLSASVGDRVTITCSVSSSVSSIYLHWYQQKPGKAPKLLIYSTSNLASGVPSRFSGSGSGTDFTLTISSLQPEDFATYYCQVYSGYPLTFGGGTKVEIKRTVAAPSVFIFPPSDEQLKSGTASVVCLLNNFYPREAKVQWKVDNALQSGNSQESVTEQDSKDSTYSLSSTLTLSKADYEKHKVYACEVTHQGLSSPVTKSFNRGEC
notes: Tetravalent: anti-MET C8-H241 human IgG4 with an anti-EGFR YK scFv fused by a glycine-rich linker to the N-terminus of each heavy chain
On to B1, for which, in experiment [1], the “% cell surface MET remaining, H441 cells, 50 nM antibody overnight, FACS” value came out at 58% and the “AVG of MFI (staining of cell surface MET), H441 cells, 50 nM antibody overnight, FACS” value worked out at 44.9 MFI. Besides, in experiment [2], the “average % of cell viability (CellTiter-Glo), H596 cells + 50 ng/mL HGF, antibody 0.4 nM” value came to 113%; the “average % of cell viability (CellTiter-Glo), H596 cells + 50 ng/mL HGF, antibody 1.2 nM” value was determined as 108%; the “average % of cell viability (CellTiter-Glo), H596 cells + 50 ng/mL HGF, antibody 3.7 nM” value amounted to 104%; the “average % of cell viability (CellTiter-Glo), H596 cells + 50 ng/mL HGF, antibody 11.1 nM” value is 107%. Besides, in experiment [2], the “average % of cell viability (CellTiter-Glo), H596 cells + 50 ng/mL HGF, antibody 33.3 nM” value came out at 101% and the “average % of cell viability (CellTiter-Glo), H596 cells + 50 ng/mL HGF, antibody 100 nM” value was found to be 102%. Further, in experiment [3], the “average % of cell viability, H1666 cells, antibody 0.02 nM” value is 106%; the “average % of cell viability, H1666 cells, antibody 0.05 nM” value was determined as 105%; the “average % of cell viability, H1666 cells, antibody 0.14 nM” value was 87.2%; the “average % of cell viability, H1666 cells, antibody 0.41 nM” value stood at 65.5%. Moreover, in experiment [3], the “average % of cell viability, H1666 cells, antibody 1.23 nM” value is 45.6%; the “average % of cell viability, H1666 cells, antibody 3.70 nM” value was found to be 36.9%; the “average % of cell viability, H1666 cells, antibody 11.11 nM” value was 31.9%; the “average % of cell viability, H1666 cells, antibody 33.33 nM” value came out at 27.9%. For the same molecule, the “average % of cell viability, H1666 cells, antibody 100 nM” value in experiment [3] came out at 26.4%. In addition, in experiment [4], binding was put at a Kd of 0.84 nM, the koff worked out at 6.3e-05 s⁻¹ and the kon is 75000 M⁻¹ s⁻¹. Moreover, in experiment [5], the dissociation constant (Kd) was found to be 0.19 nM, the koff was determined as 0.00075 s⁻¹ and the kon is 4e+06 M⁻¹ s⁻¹.

B2: anti-MET/EGFR multifunctional antibody H9 (bispecific antibody, human IgG4 S228P, kappa, F234A L235A)
heavy: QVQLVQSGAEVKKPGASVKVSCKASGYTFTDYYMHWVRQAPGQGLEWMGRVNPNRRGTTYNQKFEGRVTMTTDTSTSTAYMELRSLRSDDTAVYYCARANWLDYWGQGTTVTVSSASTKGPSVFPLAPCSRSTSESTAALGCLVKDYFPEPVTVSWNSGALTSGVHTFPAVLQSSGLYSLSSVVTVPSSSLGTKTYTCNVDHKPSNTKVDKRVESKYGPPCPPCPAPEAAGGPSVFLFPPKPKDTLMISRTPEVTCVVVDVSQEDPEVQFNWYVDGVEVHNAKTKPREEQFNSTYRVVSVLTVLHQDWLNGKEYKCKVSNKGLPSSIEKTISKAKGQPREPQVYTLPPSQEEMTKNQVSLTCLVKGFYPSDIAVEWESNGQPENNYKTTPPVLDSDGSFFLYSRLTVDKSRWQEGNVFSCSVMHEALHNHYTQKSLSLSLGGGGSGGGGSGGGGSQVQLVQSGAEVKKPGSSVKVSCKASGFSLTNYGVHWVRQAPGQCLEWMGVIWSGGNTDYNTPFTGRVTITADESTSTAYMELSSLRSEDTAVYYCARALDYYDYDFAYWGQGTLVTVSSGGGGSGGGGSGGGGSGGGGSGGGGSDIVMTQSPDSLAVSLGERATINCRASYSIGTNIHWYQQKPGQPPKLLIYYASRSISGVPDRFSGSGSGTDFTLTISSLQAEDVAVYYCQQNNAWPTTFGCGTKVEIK
light: B1 light
notes: Tetravalent: anti-MET C8-H241 human IgG4 with an anti-EGFR H9 scFv fused to the heavy chain C-terminus
As for B2, in experiment [4], the Kd was found to be 1.15 nM, the koff amounted to 0.000109 s⁻¹ and the kon was found to be 95000 M⁻¹ s⁻¹. In experiment [5], binding was characterised by a dissociation constant (Kd) of 0.32 nM, the koff was found to be 0.00018 s⁻¹ and the kon came to 570000 M⁻¹ s⁻¹.

B3: anti-MET/EGFR multifunctional antibody YK (bispecific antibody, human IgG4 S228P, kappa, F234A L235A)
heavy: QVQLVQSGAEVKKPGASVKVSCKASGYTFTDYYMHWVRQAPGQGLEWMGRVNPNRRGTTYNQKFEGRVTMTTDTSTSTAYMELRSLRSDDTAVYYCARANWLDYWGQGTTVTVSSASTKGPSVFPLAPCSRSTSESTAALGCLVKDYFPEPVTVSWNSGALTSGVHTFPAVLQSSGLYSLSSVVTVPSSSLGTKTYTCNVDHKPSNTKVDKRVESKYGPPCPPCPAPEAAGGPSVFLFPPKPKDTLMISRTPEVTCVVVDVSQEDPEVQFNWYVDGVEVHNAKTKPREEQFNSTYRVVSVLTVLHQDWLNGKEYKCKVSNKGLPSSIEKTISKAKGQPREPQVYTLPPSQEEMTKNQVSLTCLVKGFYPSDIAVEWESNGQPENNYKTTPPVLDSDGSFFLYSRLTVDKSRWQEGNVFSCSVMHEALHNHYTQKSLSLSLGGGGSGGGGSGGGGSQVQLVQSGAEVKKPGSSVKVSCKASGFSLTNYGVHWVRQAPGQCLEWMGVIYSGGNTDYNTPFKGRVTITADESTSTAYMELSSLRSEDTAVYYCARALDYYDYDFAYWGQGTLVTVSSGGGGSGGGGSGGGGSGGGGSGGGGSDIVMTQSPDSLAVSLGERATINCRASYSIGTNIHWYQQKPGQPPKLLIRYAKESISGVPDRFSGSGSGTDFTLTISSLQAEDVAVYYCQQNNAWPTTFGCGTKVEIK
light: B1 light
notes: Tetravalent: anti-MET C8-H241 human IgG4 with an anti-EGFR YK scFv fused to the heavy chain C-terminus
In experiment [4], B3 had a Kd of 0.26 nM, a koff of 3.3e-05 s⁻¹ and a kon of 126000 M⁻¹ s⁻¹. Moreover, in experiment [5], the Kd was found to be 0.44 nM, the koff amounted to 0.00057 s⁻¹ and the kon turned out to be 1.3e+06 M⁻¹ s⁻¹.

B4: anti-MET/EGFR multifunctional antibody NH-H9 (bispecific antibody, human IgG4 S228P, kappa, F234A L235A)
heavy: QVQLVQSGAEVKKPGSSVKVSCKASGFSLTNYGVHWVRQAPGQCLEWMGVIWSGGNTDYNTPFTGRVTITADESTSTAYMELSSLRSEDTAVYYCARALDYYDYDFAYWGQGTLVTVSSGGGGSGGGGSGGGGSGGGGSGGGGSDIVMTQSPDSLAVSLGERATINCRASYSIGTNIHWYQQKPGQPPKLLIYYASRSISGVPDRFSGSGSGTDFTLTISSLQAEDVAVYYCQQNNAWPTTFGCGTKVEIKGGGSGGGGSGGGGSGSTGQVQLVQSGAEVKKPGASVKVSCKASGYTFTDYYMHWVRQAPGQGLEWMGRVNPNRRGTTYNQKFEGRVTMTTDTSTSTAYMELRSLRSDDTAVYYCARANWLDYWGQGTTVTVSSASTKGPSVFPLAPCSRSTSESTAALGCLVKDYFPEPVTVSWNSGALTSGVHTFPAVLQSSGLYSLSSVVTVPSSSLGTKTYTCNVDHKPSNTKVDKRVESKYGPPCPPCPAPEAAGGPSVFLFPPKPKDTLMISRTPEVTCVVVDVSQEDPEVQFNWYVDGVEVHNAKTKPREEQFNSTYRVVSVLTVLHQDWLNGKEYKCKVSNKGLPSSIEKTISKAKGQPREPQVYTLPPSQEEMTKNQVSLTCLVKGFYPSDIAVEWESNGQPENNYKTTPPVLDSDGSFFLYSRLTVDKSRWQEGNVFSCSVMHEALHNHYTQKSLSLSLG
light: B1 light
notes: Tetravalent: anti-MET C8-H241 human IgG4 with an anti-EGFR H9 scFv fused to the N-terminus of each heavy chain
For the molecule B4, in experiment [2], the “average % of cell viability (CellTiter-Glo), H596 cells + 50 ng/mL HGF, antibody 0.4 nM” value turned out to be 107%; the “average % of cell viability (CellTiter-Glo), H596 cells + 50 ng/mL HGF, antibody 1.2 nM” value turned out to be 102%; the “average % of cell viability (CellTiter-Glo), H596 cells + 50 ng/mL HGF, antibody 3.7 nM” value is 103%; the “average % of cell viability (CellTiter-Glo), H596 cells + 50 ng/mL HGF, antibody 11.1 nM” value is 105%. Further, in experiment [2], the “average % of cell viability (CellTiter-Glo), H596 cells + 50 ng/mL HGF, antibody 33.3 nM” value is 102% and the “average % of cell viability (CellTiter-Glo), H596 cells + 50 ng/mL HGF, antibody 100 nM” value was 102%. In addition, in experiment [3], the “average % of cell viability, H1666 cells, antibody 0.02 nM” value worked out at 105%; the “average % of cell viability, H1666 cells, antibody 0.05 nM” value worked out at 100%; the “average % of cell viability, H1666 cells, antibody 0.14 nM” value is 77.8%; the “average % of cell viability, H1666 cells, antibody 0.41 nM” value turned out to be 52.9%. Besides, in experiment [3], the “average % of cell viability, H1666 cells, antibody 1.23 nM” value was 38.6%; the “average % of cell viability, H1666 cells, antibody 3.70 nM” value turned out to be 31.6%; the “average % of cell viability, H1666 cells, antibody 11.11 nM” value came to 26.6%; the “average % of cell viability, H1666 cells, antibody 33.33 nM” value was 24.1%. The “average % of cell viability, H1666 cells, antibody 100 nM” value in experiment [3] is 23.1%. Further, in experiment [4], binding was characterised by a dissociation constant (Kd) of 0.75 nM, the koff was 7.9e-05 s⁻¹ and the kon stood at 105000 M⁻¹ s⁻¹. In experiment [5], this molecule gave a Kd of 0.1 nM, a koff of 0.00018 s⁻¹ and a kon of 1.8e+06 M⁻¹ s⁻¹.

A word on the Kd: it is the constant that tells how readily two partners part at equilibrium. What is called koff is the rate constant with which the complex falls apart. A low value points to a long-lived complex. The kon is the second-order rate constant of association. A higher kon goes with faster complex formation.
